Data: publication PMC3793860, “A role for the vesicle-associated tubulin binding protein ARL6 (BBS3) in flagellum extension in Trypanosoma brucei” (Biochimica et Biophysica Acta, 2012)

Target: freshly polymerised microtubules (Microtubule Binding Protein Spin-Down Assay kit, Cytoskeleton, Inc.)
Assay: co-sedimentation; microtubule spin-down: 2.5 μg protein, 30 min at room temperature with freshly polymerised microtubules (equivalent of 2 μM tubulin dimer), 20 μM Taxol, 10 mM MgCl2 and 4 mM GDP or GTP; 100,000 g for 40 min through a 60% glycerol cushion; supernatant and pellet on Coomassie gel

freshly polymerised microtubules (Microtubule Binding Protein Spin-Down Assay kit, Cytoskeleton, Inc.), sequence (P68363 whole entry, chain 1 of 2): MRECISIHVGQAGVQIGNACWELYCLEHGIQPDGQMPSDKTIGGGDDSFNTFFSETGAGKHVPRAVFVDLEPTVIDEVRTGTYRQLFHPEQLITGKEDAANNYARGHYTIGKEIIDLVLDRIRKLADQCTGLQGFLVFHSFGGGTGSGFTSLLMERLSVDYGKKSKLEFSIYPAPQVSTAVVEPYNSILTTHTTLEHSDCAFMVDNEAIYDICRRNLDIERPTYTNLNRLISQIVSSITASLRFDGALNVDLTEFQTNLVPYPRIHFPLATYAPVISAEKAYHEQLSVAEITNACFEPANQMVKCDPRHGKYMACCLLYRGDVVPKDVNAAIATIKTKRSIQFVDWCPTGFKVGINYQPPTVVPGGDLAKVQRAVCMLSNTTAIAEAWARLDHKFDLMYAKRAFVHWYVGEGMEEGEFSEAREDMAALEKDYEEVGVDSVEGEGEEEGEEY
freshly polymerised microtubules (Microtubule Binding Protein Spin-Down Assay kit, Cytoskeleton, Inc.), sequence (A8K068 whole entry, chain 2 of 2, further chain): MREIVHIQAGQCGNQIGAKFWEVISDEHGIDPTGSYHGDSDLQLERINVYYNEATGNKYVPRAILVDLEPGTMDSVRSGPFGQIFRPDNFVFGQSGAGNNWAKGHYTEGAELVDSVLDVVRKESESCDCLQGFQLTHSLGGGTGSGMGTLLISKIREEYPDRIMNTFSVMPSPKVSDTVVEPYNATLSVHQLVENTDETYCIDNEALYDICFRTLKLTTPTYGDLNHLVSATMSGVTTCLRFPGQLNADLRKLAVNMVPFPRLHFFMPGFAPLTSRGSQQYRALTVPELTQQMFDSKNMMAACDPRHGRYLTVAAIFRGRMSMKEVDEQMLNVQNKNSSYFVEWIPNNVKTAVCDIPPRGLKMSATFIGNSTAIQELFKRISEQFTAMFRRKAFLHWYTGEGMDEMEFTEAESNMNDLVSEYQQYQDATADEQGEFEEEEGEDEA

“N-terminal His-tagged recombinant T. brucei ARL6 (natural protein)” gave a percent of the protein in the insoluble fraction with microtubules, with GDP of 36% and a percent of the protein in the insoluble fraction with microtubules, with GTP of 20%.
